# Assay results: US20090092595A1, “Suppression of sPLA2-integrin binding for treating an inflammatory condition” (REGENTS OF THE UNIVERSITY OF CALIFORNIA, priority 2007, published 2009)
# B1: wt sPLA2-IIA: Secretory phospholipase A2 group IIA, wild type, recombinant from bacteria BL21, refolded (protein)
# chain: NLVNFHRMIKLTTGKEAALSYGFYGCHCGVGGRGSPKDATDRCCVTHDCCYKRLEKRGCGTKFLSYKFSNSGSRITCAKQDSCRSQLCECDKAAATCFARNKTTYNKKYQYYSNKHCRGSTPRC
# modifications: left off: small tags and cut ends
# Tested on: U937 human monocytic lymphoma cells
# Assay: Proliferation of U937 cells (MTS assay)
# Format: cell-based
# Conditions: serum-starved 48 h, treated 48 h
# Experimental: U937 cells (αvβ3+, α4β1+) were plated in wells of 96-well plates (10,000 cells/well), and serum-starved for 48 h. After treatment with wt or mutant sPLA2-IIA for 48 h, we measured cell proliferation by MTS assays. […] U937 cells were serum-starved for 24 h, and stimulated with wt and mutant sPLA2-IIA (0.5 μg/ml) for 10 min at 37° C. Cell lysates were analyzed by western blotting with anti-phospho ERK1/2 or anti-ERK1/2 antibodies. The blot is representative of three independent experiments.
# Cell proliferation and MAP kinase activation K562 cells and human monocytic lymphoma U937 cells were maintained in RPM11640 medium supplemented with 10% FCS. Cells were plated in 96-well plates (1×10^4 cells/well), and serum-starved for 48 h at 37° C. in 5% CO2 atmosphere. Cells were then treated with or without sPLA2-IIA in medium without serum for 48 h. Cell proliferation was determined by MTS assays using the Aqueous Cell Proliferation Assay Kit (Promega). For MAP kinase activation assays, cells were serum starved in RPMI1640 medium supplemented with 0.4% FCS for 24 h, and stimulated with Wt and mutant sPLA2-IIA (0.5 μg/ml) for 10 min at 37° C. ERK1/2 activation was measured as described (Mori, S. et al., J Biol Chem, in press (2008)).
molecule,measurement,value
B1,proliferation of monocytic U937 cells,induced robust proliferation
